Values of other authors, collected in article PMC12914960, “Repurposing a detrimental antibody epitope as targeted therapeutics for sepsis and rheumatoid arthritis” (Military Medical Research, 2026).

Experiments:
[1] = system: Differentiated human macrophages; conditions: full-length TN; ref [21]; cited from earlier work
Excerpt: To investigate P2-1’s effect on HMGB1 endocytosis, differentiated human macrophages were exposed to Alexa Fluor 555-labeled HMGB1 under various conditions (Fig. 5d).

human PBMCs = conditions: TN; ref [21]; cited from earlier work
Excerpt: To validate these RNA-seq findings, we quantified HMGB1-induced cytokine/chemokine protein levels using cytokine antibody arrays. Consistent with our RNA-seq data, HMGB1 stimulation led to a significant increase in the protein levels of various cytokines (e.g., TNF, IL-6, and IL-10) and chemokines (e.g., CXCL5/ENA-78, CXCL1/GRO-α, CXCL8/IL-8, CCL2/MCP-1, and CCL7/MCP-3) in human PBMCs (Fig. 6b), confirming its potent immunomodulating activities.

[2] = system: Differentiated human macrophages; conditions: TN; ref [21]; cited from earlier work
Excerpt: Crucially, our findings reveal a striking dichotomy in the biological effects of full-length TN and its derived peptide, P2-1, on HMGB1-mediated detrimental macrophage responses. […] We propose that full-length TN, when complexed with HMGB1, may engage unidentified macrophage surface receptor(s), thereby facilitating receptor-mediated endocytosis of TN/HMGB1 complexes and ...

B1: TN: full-length human tetranectin (protein, UniProt P05452 1-202, looked up)
chain: MELWGAYLLLCLFSLLTQVTTEPPTQKPKKIVNAKKDVVNTKMFEELKSRLDTLAQEVALLKEQQALQTVCLKGTKVHMKCFLAFTQTKTFHEASEDCISRGGTLGTPQTGSENDALYEYLRQSVGNEAEIWLGLNDMAAEGTWVDMTGARIAYKNWETEITAQPDGGKTENCAVLSGAANGKWFDKRCRDQLPYICQFGIV
modifications: full-length
notes: full-length human tetranectin
[1]
  HMGB1 cellular uptake, in words: significantly increased HMGB1 uptake
Human PBMCs
  HMGB1-induced cytokines/chemokines, in words: did not affect HMGB1-induced cytokines (e.g., IL-6) or chemokines (e.g., MCP-1)
[2]
  HMGB1 endocytosis and macrophage pyroptosis, in words: enhances HMGB1 endocytosis and subsequent macrophage pyroptosis
